{"source": "the supplement of paper PMC6755084", "data": [{"system": "F1*sub RNA substrate (template-directed ligation)", "experiment": "fraction ligated after 30 min (ligated reads / total reads); higher = more ligase activity; sequences stand for … in GAGACCGCAACTGAAAAGTTGT…AGTTCTGCACGTAGAAGCAAAAGGC", "conditions": "42 °C", "procedure,_shortened": "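Ribozyme variants were transcribed with T7 from PCR-amplified oligo-pool templates and gel-purified. Ligated and unligated bands, separated on gel, were reverse transcribed with barcoded primers and sequenced on a MiSeq, with core bases filtered at quality ≥20. Fraction ligated per variant was computed as ligated reads divided by total reads.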", "values": [{"sequence": "TATCACTTTCGTAAGACACTTTGGTGGGTTG [3d1577]", "fraction ligated": 0.0247}, {"sequence": "TATCACTTTCGTAAGACACTTTGGTGGTTGA [3d1575]", "fraction ligated": 0.025}, {"sequence": "TATCACTTTCGTAAGACACTTTGTGGGTTGA [3d1569]", "fraction ligated": 0.0262}, {"sequence": "TATCACTTTCGTAAGACATTGGATGGGTTGA [3d1554]", "fraction ligated": 0.791}, {"sequence": "TATCACTTTCGTAAGACATTTGATGGGTTGA [3d1555]", "fraction ligated": 0.768}, {"sequence": "TATCACTTTCGTAAGACATTTGGAGGGTTGA [3d1557]", "fraction ligated": 0.0972}, {"sequence": "TATCACTTTCGTAAGACATTTGGATGGGTTA [3d1559]", "fraction ligated": 0.778}, {"sequence": "TATCACTTTCGTAAGACATTTGGATGGGTTG [3d1560]", "fraction ligated": 0.811}, {"sequence": "TATCACTTTCGTAAGACATTTGGATGGTTGA [3d1558]", "fraction ligated": 0.286}, {"sequence": "TATCACTTTCGTAAGACATTTGGTGGGTTGA [3d1556]", "fraction ligated": 0.284}, {"sequence": "TATCACTTTCGTAAGACCTTGGATGGGTTGA [3d1547]", "fraction ligated": 0.766}, {"sequence": "TATCACTTTCGTAAGACCTTTGATGGGTTGA [3d1548]", "fraction ligated": 0.786}, {"sequence": "TATCACTTTCGTAAGACCTTTGGAGGGTTGA [3d1550]", "fraction ligated": 0.0285}, {"sequence": "TATCACTTTCGTAAGACCTTTGGATGGGTTA [3d1552]", "fraction ligated": 0.623}, {"sequence": "TATCACTTTCGTAAGACCTTTGGATGGGTTG [3d1553]", "fraction ligated": 0.75}, {"sequence": "TATCACTTTCGTAAGACCTTTGGATGGTTGA [3d1551]", "fraction ligated": 0.0784}, {"sequence": "TATCACTTTCGTAAGACCTTTGGTGGGTTGA [3d1549]", "fraction ligated": 0.104}, {"sequence": "TATCACTTTCGTAAGACTTTGGATGGGTTGA [3d1529]", "fraction ligated": 0.823}, {"sequence": "TATCACTTTCGTAAGCACTTGGATGGGTTGA [3d1532]", "fraction ligated": 0.772}, {"sequence": "TATCACTTTCGTAAGCACTTTGATGGGTTGA [3d1533]", "fraction ligated": 0.784}, {"sequence": "TATCACTTTCGTAAGCACTTTGGAGGGTTGA [3d1535]", "fraction ligated": 0.03}, {"sequence": "TATCACTTTCGTAAGCACTTTGGATGGGTTA [3d1537]", "fraction ligated": 0.727}, {"sequence": "TATCACTTTCGTAAGCACTTTGGATGGGTTG [3d1538]", "fraction ligated": 0.764}, {"sequence": "TATCACTTTCGTAAGCACTTTGGATGGTTGA [3d1536]", "fraction ligated": 0.0345}, {"sequence": "TATCACTTTCGTAAGCACTTTGGTGGGTTGA [3d1534]", "fraction ligated": 0.0496}, {"sequence": "TATCACTTTCGTAAGCATTTGGATGGGTTGA [3d1531]", "fraction ligated": 0.791}, {"sequence": "TATCACTTTCGTAAGCCTTTGGATGGGTTGA [3d1530]", "fraction ligated": 0.774}, {"sequence": "TATCACTTTCGTAGAACTTTGGATGGGTTGA [3d1509]", "fraction ligated": 0.875}, {"sequence": "TATCACTTTCGTAGACACTTGGATGGGTTGA [3d1512]", "fraction ligated": 0.752}, {"sequence": "TATCACTTTCGTAGACACTTTGATGGGTTGA [3d1513]", "fraction ligated": 0.783}, {"sequence": "TATCACTTTCGTAGACACTTTGGAGGGTTGA [3d1515]", "fraction ligated": 0.0412}, {"sequence": "TATCACTTTCGTAGACACTTTGGATGGGTTA [3d1517]", "fraction ligated": 0.631}, {"sequence": "TATCACTTTCGTAGACACTTTGGATGGGTTG [3d1518]", "fraction ligated": 0.786}, {"sequence": "TATCACTTTCGTAGACACTTTGGATGGGTTGA [2d150]", "fraction ligated": 0.802}, {"sequence": "TATCACTTTCGTAGACACTTTGGATGGTTGA [3d1516]", "fraction ligated": 0.0829}, {"sequence": "TATCACTTTCGTAGACACTTTGGTGGGTTGA [3d1514]", "fraction ligated": 0.0546}, {"sequence": "TATCACTTTCGTAGACATTTGGATGGGTTGA [3d1511]", "fraction ligated": 0.77}, {"sequence": "TATCACTTTCGTAGACCTTTGGATGGGTTGA [3d1510]", "fraction ligated": 0.78}, {"sequence": "TATCACTTTCGTAGCACTTTGGATGGGTTGA [3d1508]", "fraction ligated": 0.826}, {"sequence": "TATCACTTTCGTGACACTTTGGATGGGTTGA [3d1506]", "fraction ligated": 0.813}, {"sequence": "TATCACTTTCTAAACACTTTGGATGGGTTGA [3d1481]", "fraction ligated": 0.79}, {"sequence": "TATCACTTTCTAAGAACTTTGGATGGGTTGA [3d1483]", "fraction ligated": 0.87}, {"sequence": "TATCACTTTCTAAGACACTTGGATGGGTTGA [3d1486]", "fraction ligated": 0.767}, {"sequence": "TATCACTTTCTAAGACACTTTGATGGGTTGA [3d1487]", "fraction ligated": 0.77}, {"sequence": "TATCACTTTCTAAGACACTTTGGAGGGTTGA [3d1489]", "fraction ligated": 0.026}, {"sequence": "TATCACTTTCTAAGACACTTTGGATGGGTTA [3d1491]", "fraction ligated": 0.68}, {"sequence": "TATCACTTTCTAAGACACTTTGGATGGGTTG [3d1492]", "fraction ligated": 0.785}, {"sequence": "TATCACTTTCTAAGACACTTTGGATGGGTTGA [2d148]", "fraction ligated": 0.794}, {"sequence": "TATCACTTTCTAAGACACTTTGGATGGTTGA [3d1490]", "fraction ligated": 0.114}, {"sequence": "TATCACTTTCTAAGACACTTTGGTGGGTTGA [3d1488]", "fraction ligated": 0.101}, {"sequence": "TATCACTTTCTAAGACATTTGGATGGGTTGA [3d1485]", "fraction ligated": 0.818}, {"sequence": "TATCACTTTCTAAGACCTTTGGATGGGTTGA [3d1484]", "fraction ligated": 0.783}, {"sequence": "TATCACTTTCTAAGCACTTTGGATGGGTTGA [3d1482]", "fraction ligated": 0.788}, {"sequence": "TATCACTTTCTAGACACTTTGGATGGGTTGA [3d1480]", "fraction ligated": 0.765}, {"sequence": "TATCACTTTGAAGACACTTTGGATGGGTTGA [3d1465]", "fraction ligated": 0.819}, {"sequence": "TATCACTTTGTAAACACTTTGGATGGGTTGA [3d1467]", "fraction ligated": 0.823}, {"sequence": "TATCACTTTGTAAGAACTTTGGATGGGTTGA [3d1469]", "fraction ligated": 0.866}, {"sequence": "TATCACTTTGTAAGACACTTGGATGGGTTGA [3d1472]", "fraction ligated": 0.802}, {"sequence": "TATCACTTTGTAAGACACTTTGATGGGTTGA [3d1473]", "fraction ligated": 0.793}, {"sequence": "TATCACTTTGTAAGACACTTTGGAGGGTTGA [3d1475]", "fraction ligated": 0.0352}, {"sequence": "TATCACTTTGTAAGACACTTTGGATGGGTTA [3d1477]", "fraction ligated": 0.776}, {"sequence": "TATCACTTTGTAAGACACTTTGGATGGGTTG [3d1478]", "fraction ligated": 0.82}, {"sequence": "TATCACTTTGTAAGACACTTTGGATGGGTTGA [2d147]", "fraction ligated": 0.838}, {"sequence": "TATCACTTTGTAAGACACTTTGGATGGTTGA [3d1476]", "fraction ligated": 0.119}, {"sequence": "TATCACTTTGTAAGACACTTTGGTGGGTTGA [3d1474]", "fraction ligated": 0.0671}, {"sequence": "TATCACTTTGTAAGACATTTGGATGGGTTGA [3d1471]", "fraction ligated": 0.837}, {"sequence": "TATCACTTTGTAAGACCTTTGGATGGGTTGA [3d1470]", "fraction ligated": 0.769}, {"sequence": "TATCACTTTGTAAGCACTTTGGATGGGTTGA [3d1468]", "fraction ligated": 0.783}, {"sequence": "TATCACTTTGTAGACACTTTGGATGGGTTGA [3d1466]", "fraction ligated": 0.843}, {"sequence": "TATCACTTTTAAGACACTTTGGATGGGTTGA [3d1464]", "fraction ligated": 0.768}, {"sequence": "TATCAGTCGTAAGACACTTTGGATGGGTTGA [3d1121]", "fraction ligated": 0.764}, {"sequence": "TATCATGCGTAAGACACTTTGGATGGGTTGA [3d1123]", "fraction ligated": 0.833}, {"sequence": "TATCATGTCGAAGACACTTTGGATGGGTTGA [3d1126]", "fraction ligated": 0.792}, {"sequence": "TATCATGTCGTAAACACTTTGGATGGGTTGA [3d1128]", "fraction ligated": 0.765}, {"sequence": "TATCATGTCGTAAGAACTTTGGATGGGTTGA [3d1130]", "fraction ligated": 0.848}, {"sequence": "TATCATGTCGTAAGACACTTGGATGGGTTGA [3d1133]", "fraction ligated": 0.776}, {"sequence": "TATCATGTCGTAAGACACTTTGATGGGTTGA [3d1134]", "fraction ligated": 0.816}, {"sequence": "TATCATGTCGTAAGACACTTTGGAGGGTTGA [3d1136]", "fraction ligated": 0.0722}, {"sequence": "TATCATGTCGTAAGACACTTTGGATGGGTTA [3d1138]", "fraction ligated": 0.641}, {"sequence": "TATCATGTCGTAAGACACTTTGGATGGGTTG [3d1139]", "fraction ligated": 0.784}, {"sequence": "TATCATGTCGTAAGACACTTTGGATGGGTTGA [2d109]", "fraction ligated": 0.792}, {"sequence": "TATCATGTCGTAAGACACTTTGGATGGTTGA [3d1137]", "fraction ligated": 0.268}]}]}
